Test system: Escherichia coli TOP10
Assay: shrunken log2 fold change of peptide-encoding DNA abundance (4.5 h post-induction vs induction); higher = less antimicrobial activity (less host growth inhibition)
Details: time post-induction: 4.5 h; library: site-saturation at positions 5, 18, 19, 20
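Also: peptides expressed intracellularly from a pBAD plasmid library in pooled LB shake-flask culture, induced with 0.3% L-arabinose, DNA abundance read by NGS, three biological replicates, DESeq2 with apeglm shrinkage.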

Row | Sequence | shrunken log2 fold change
1 | RRIRRRPPRLPRPRPRPAAQPRP | 0.462
2 | RRIRVRPPRLPRPRPRPPHEPRP | 0.42
3 | RRIRKRPPRLPRPRPRPADGPRP | 0.223
4 | RRIRVRPPRLPRPRPRPFAYPRP | -0.528
5 | RRIRYRPPRLPRPRPRPWASPRP | -0.154
6 | RRIRWRPPRLPRPRPRPEMAPRP | 1.14
7 | RRIRERPPRLPRPRPRPHLIPRP | -0.207
8 | RRIRTRPPRLPRPRPRPKCRPRP | 0.0762
9 | RRIRDRPPRLPRPRPRPNIEPRP | -0.00164
10 | RRIRTRPPRLPRPRPRPHVSPRP | -0.287
11 | RRIRARPPRLPRPRPRPVCEPRP | 0.836
12 | RRIRYRPPRLPRPRPRPRGPPRP | 0.127
13 | RRIRKRPPRLPRPRPRPSHNPRP | -0.351
14 | RRIRHRPPRLPRPRPRPPRRPRP | 0.452
15 | RRIRQRPPRLPRPRPRPGPWPRP | 0.479
16 | RRIRFRPPRLPRPRPRPWLLPRP | -0.343
17 | RRIRMRPPRLPRPRPRPHPIPRP | -0.116
18 | RRIRKRPPRLPRPRPRPSTQPRP | 0.169
19 | RRIRPRPPRLPRPRPRPILPPRP | 0.198
20 | RRIRPRPPRLPRPRPRPFTIPRP | -0.0323
21 | RRIRFRPPRLPRPRPRPCHSPRP | -0.0231
22 | RRIRERPPRLPRPRPRPRYYPRP | -0.206
23 | RRIRGRPPRLPRPRPRPYDLPRP | -0.511
24 | RRIRGRPPRLPRPRPRPREPPRP | 0.812
25 | RRIRIRPPRLPRPRPRPAGAPRP | 0.359

Row | Sequence | shrunken log2 fold change
26 | RRIRNRPPRLPRPRPRPDTEPRP | -0.0108
27 | RRIRNRPPRLPRPRPRPTYLPRP | -0.533
28 | RRIRNRPPRLPRPRPRPQDEPRP | 0.00847
29 | RRIRQRPPRLPRPRPRPRIVPRP | 0.01
30 | RRIRQRPPRLPRPRPRPIARPRP | -0.0171
31 | RRIRHRPPRLPRPRPRPNLYPRP | -0.012
32 | RRIRKRPPRLPRPRPRPATYPRP | 0.0782
33 | RRIRARPPRLPRPRPRPCKAPRP | 0.125
34 | RRIRFRPPRLPRPRPRPEARPRP | -0.137
35 | RRIRGRPPRLPRPRPRPFCDPRP | 0.456
36 | RRIRPRPPRLPRPRPRPQKAPRP | 1.05
37 | RRIRHRPPRLPRPRPRPIFKPRP | -0.195
38 | RRIRERPPRLPRPRPRPFSNPRP | -0.441
39 | RRIRFRPPRLPRPRPRPDNMPRP | -0.748
40 | RRIRHRPPRLPRPRPRPTWEPRP | 0.0143
41 | RRIRTRPPRLPRPRPRPNYHPRP | -1.14
42 | RRIRDRPPRLPRPRPRPHMQPRP | -0.368
43 | RRIRIRPPRLPRPRPRPFRRPRP | 0.017
44 | RRIRVRPPRLPRPRPRPPPEPRP | 0.755
45 | RRIRERPPRLPRPRPRPDPFPRP | -0.102
46 | RRIRNRPPRLPRPRPRPFIWPRP | -0.741
47 | RRIRCRPPRLPRPRPRPHTHPRP | -0.676
48 | RRIRKRPPRLPRPRPRPGWIPRP | 1.07
49 | RRIRMRPPRLPRPRPRPMNHPRP | -0.129
50 | RRIRTRPPRLPRPRPRPFNWPRP | -0.22

Row | Sequence | shrunken log2 fold change
51 | RRIRGRPPRLPRPRPRPHWQPRP | 0.258
52 | RRIRNRPPRLPRPRPRPEPWPRP | 0.0625
53 | RRIRERPPRLPRPRPRPKRRPRP | 0.143
54 | RRIRPRPPRLPRPRPRPLSSPRP | 0.00895
55 | RRIRIRPPRLPRPRPRPRMQPRP | -0.199
56 | RRIRNRPPRLPRPRPRPYCIPRP | -0.177
57 | RRIRNRPPRLPRPRPRPDIVPRP | -0.0101
58 | RRIRERPPRLPRPRPRPVSTPRP | -0.199
59 | RRIRDRPPRLPRPRPRPFWYPRP | -0.167
60 | RRIRLRPPRLPRPRPRPTCHPRP | 0.000681
61 | RRIRDRPPRLPRPRPRPYGDPRP | -0.0996
62 | RRIRWRPPRLPRPRPRPYSEPRP | -0.0145
63 | RRIRVRPPRLPRPRPRPGFYPRP | -0.345
64 | RRIRRRPPRLPRPRPRPMYGPRP | -0.0152
65 | RRIRTRPPRLPRPRPRPKAVPRP | 0.26
66 | RRIRGRPPRLPRPRPRPAIWPRP | 0.396
67 | RRIRKRPPRLPRPRPRPKYTPRP | -0.113
68 | RRIRWRPPRLPRPRPRPLVYPRP | 0.114
69 | RRIRMRPPRLPRPRPRPVFIPRP | -0.137
70 | RRIRKRPPRLPRPRPRPRTEPRP | 1.04
71 | RRIRERPPRLPRPRPRPQDDPRP | 0.121
72 | RRIRWRPPRLPRPRPRPTCDPRP | 0.388
73 | RRIRMRPPRLPRPRPRPDNRPRP | 0.00102
74 | RRIRQRPPRLPRPRPRPNDNPRP | -0.577
75 | RRIRKRPPRLPRPRPRPHIQPRP | -0.224

Reference: the supplement of paper PMC9112550, “Optimization of the antimicrobial peptide Bac7 by deep mutational scanning” (BMC Biology, 2022)
